{"source": "patent US8034904B2", "about": "“Anti-IGF-I receptor antibody” (Immunogen Inc., priority 2002, dated 2011)", "molecules": {"B1": {"name": "EM164: murine anti-IGF-I receptor monoclonal antibody, IgG1 with kappa light chain, hybridoma ATCC PTA-4457; heavy SEQ ID NO:7, light SEQ ID NO:8 (antibody)", "heavy": "QVQLQQSGAELVKPGASVKLSCKASGYTFTSYWMHWVKQRPGQGLEWIGEINPSNGRTNYNEKFKRKATLTVDKSSSTAYMQLSSLTSEDSAVYYFARGRPDYYGSSKWYFDVWGAGTTVTVSS", "light": "DVLMTQTPLSLPVSLGDQASISCRSSQSIVHSNVNTYLEWYLQKPGQSPKLLIYKVSNRFSGVPDRFSGSGSGTDFTLRISRVEAEDLGIYYCFQGSHVPPTFGGGTKLEIKR", "modifications": "antibody heavy chain; antibody light chain"}}, "key": {"Colo 205 (colon) cells": {"test_system": "Colo 205 (colon) cells", "experiment": "Growth and survival of Colo 205 cells (MTT assay)", "format": "cell-based, human", "experimental": "(§1) Several human tumor cell lines were tested in serum-free conditions for their growth and survival response to IGF-I. These cell lines were treated with EM164 antibody in the presence of IGF-I, IGF-II, or serum, and their growth and survival responses were measured using an MTT assay after 2-4 days. Approximately 1500 cells were plated in a 96-well plate in regular medium with serum, which was replaced with serum-free medium the following day (either serum-free RPMI medium supplemented with transferrin and BSA, or phenol-red free medium as specified by Dufourny, B. et al., 1997, J. Biol. Chem., 272, 31163-31171). After one day of growth in serum-free medium, the cells were incubated with about 75 μL of 10 μg/mL antibody for 30 min.-3 h, followed by the addition of 25 μL of IGF-I (or IGF-II or serum) solution to obtain a final concentration of 10 ng/mL IGF-I, or 20 ng/mL IGF-II, or 0.04-10% serum. In some experiments, the cells were stimulated first with IGF-I for 15 min before the addition of EM164 antibody, or both IGF-I and EM164 antibody were added together. The cells were then allowed to grow for another 2-3 days. A solution of MTT (3-(4,5)-dimethylthiazol-2-yl)-2,5-diphenyltetrazolium bromide; 25 μL of a 5 mg/mL solution in PBS) was then added and the cells were returned to the incubator for 2-3 h. The medium was then removed and replaced by 100 μL DMSO, mixed, and the absorbance of the plate was measured at 545 nm."}, "[1]": {"target": "T1, IGF-I receptor on MCF-7 cells (Homo sapiens, UniProt P08069)", "T1 construct": "human breast cancer MCF-7 cells, which expressed IGF-I receptor; endogenous in cells; host or cells: MCF-7 human breast cancer cells", "experiment": "Inhibition of binding of biotinylated IGF-I to MCF-7 cells", "format": "cell-based", "conditions": "5 μg/mL antibody, 2 h; 50 ng/mL biotinylated IGF-I, 20 min, 37° C.", "experimental": "The binding of IGF-I to human breast cancer MCF-7 cells was inhibited by EM164 antibody (FIG. 3). […] The cells were then washed twice with serum-free medium to remove unbound biotin-IGF-I, and were then lysed in 50 mM HEPES, pH 7.4, containing 1% NP-40 and protease inhibitors. An Immulon-2HB ELISA plate was coated with a mouse monoclonal anti-IGF-I receptor beta chain antibody and was used to capture the IGF-I receptor and bound biotin-IGF-I from the lysate. […] The wells were washed, incubated with streptavidin-horseradish peroxidase conjugate, washed again, and then detected using ABTS/H2O2 substrate."}, "[2]": {"target": "T2, IGF-I receptor of MCF-7 cells (Homo sapiens, UniProt P08069)", "T2 construct": "human breast cancer MCF-7 cells, which expressed IGF-I receptor; endogenous in cells; host or cells: MCF-7 human breast cancer cells", "experiment": "Immunoprecipitation of IGF-I receptor from MCF-7 lysate", "format": "binding", "conditions": "MCF-7 lysate (human)", "from_the_text": "A Western blot of the EM164 antibody immunoprecipitate was detected using a rabbit polyclonal anti-IGF-I receptor beta chain (C-terminus) antibody (Santa Cruz Biotechnology) and a goat-anti-rabbit-IgG-antibody-horseradish peroxidase conjugate, followed by washes and enhanced chemiluminescence (ECL) detection."}, "[3]": {"test_system": "Calu-6 non-small cell lung cancer cells", "experiment": "Growth and survival of Calu-6 cells (MTT assay)", "format": "cell-based, human", "experimental": "as §1"}, "[4]": {"test_system": "Human pancreatic cancer BxPC-3 xenografts", "experiment": "BxPC-3 pancreatic cancer xenograft in SCID/ICR mice", "format": "in vivo, mouse", "experimental": "Human pancreatic cancer xenografts were established in 5 week-old, female SCID/ICR mice (Taconic) by subcutaneous injections of 10^7 BxPC-3 cells in PBS (day 0). The mice bearing established tumors of 80 mm^3 were then treated with EM164 alone (13 injections of 0.8 mg/mouse, i.v., lateral tail vein, on days 12, 16, 19, 23, 26, 29, 36, 43, 50, 54, 58, 61 and 64), with gemcitabine alone (two injections of 150 mg/kg/mouse, i.p., on days 12 and 19), with a combination of gemcitabine and. EM164 following the above schedules, PBS alone, and a control antibody alone (following the same schedule as EM164) using five mice in each of the five treatment groups."}, "MCF-7 (breast) cells": {"test_system": "MCF-7 (breast) cells", "experiment": "Growth and survival of MCF-7 cells (MTT assay)", "format": "cell-based, human", "experimental": "as §1"}, "[5]": {"target": "biotinylated human IGF-I receptor", "experiment": "ELISA binding titration (Kd) with biotinylated IGF-I receptor", "experimental": "The wells were next washed with TBS-T buffer and incubated with goat-anti-mouse-IgGH+L-antibody-horseradish peroxidase conjugate (100 μL; 0.5 μg/mL in blocking buffer), followed by washes and detection using ABTS/H2O2 substrate at 405 nm. The value of Kd was estimated by non-linear regression for one-site binding.\nA similar binding titration was carried out using the Fab fragment of EM164 antibody, prepared by papain digestion of the antibody as described by E. Harlow and D. Lane (“Using Antibodies: A Laboratory Manual”; 1999, Cold Spring Harbor Laboratory Press, New York)."}, "[6]": {"test_system": "A-673 human rhabdomyosarcoma/Ewing's sarcoma xenografts", "experiment": "A-673 xenograft in mice", "conditions": "mouse, in vivo"}, "[7]": {"target": "T1, IGF-I receptor on MCF-7 cells", "experiment": "FACS binding to human breast cancer MCF-7 cells", "experimental": "The cells were pelleted by centrifugation and washed with cold FACS buffer by gentle flicking, followed by incubation with goat-anti-mouse-IgG-antibody-FITC conjugate (100 μL; 10 μg/mL in FACS buffer) on ice for 1 h. The cells were pelleted, washed, and resuspended in 120 μL of 1% formaldehyde solution in PBS. The plate was analyzed using a FACSCalibur reader (BD Biosciences)."}, "HT-29 colon cancer cells": {"test_system": "HT-29 colon cancer cells", "experiment": "Growth and survival of HT-29 cells (MTT assay, colony formation)", "format": "cell-based, human", "experimental": "as §1"}, "[8]": {"conditions": "5-10 μg/mL EM164, 10 ng/mL IGF-I"}, "[9]": {"conditions": "5-10 μg/mL EM164, MTT or colony formation assay"}}}
{"molecule": "B1", "values": [{"measurement": "Inhibition by EM164 antibody of IGF-I-stimulated growth in serum-free medium", "setting": "Colo 205 (colon) cells; [8]", "result": 50, "unit": "%"}, {"measurement": "% Inhibition by EM164 antibody of Growth/survival of cells in 1.25-10% serum", "setting": "Colo 205 (colon) cells; [9]", "result": "Yes"}, {"measurement": "inhibition of IGF-I binding to MCF-7 cells", "setting": "[1]", "result": "essentially quantitative"}, {"measurement": "immunoprecipitation of IGF-I receptor", "setting": "[2]", "result": "can be used for immunoprecipitation of IGF-I receptor"}, {"measurement": "Inhibition by EM164 antibody of IGF-I-stimulated growth in serum-free medium", "setting": "[3]; [8]", "result": 85, "unit": "%"}, {"measurement": "% Inhibition by EM164 antibody of Growth/survival of cells in 1.25-10% serum", "setting": "[3]; [9]", "result": "Yes"}, {"measurement": "day on which measurable tumor regrowth was seen in more than one animal", "setting": "[4]; BxPC-3 xenografts", "result": 43, "unit": "days"}, {"measurement": "total regression of tumor xenografts (animals)", "setting": "[4]; EM164 0.8 mg/mouse i.v. x13, gemcitabine 150 mg/kg i.p. days 12 and 19, five mice per group", "result": "4 of 5"}, {"measurement": "mean tumor volumes on day 74 in comparison with the control treatments", "setting": "[4]; P=0.029 (EM164) and 0.002 (combination), two-tailed T-test", "result": "significantly smaller"}, {"measurement": "growth of established BxPC-3 xenografts", "setting": "[4]; another study, intraperitoneal injections", "result": "inhibited the growth"}, {"measurement": "inhibition of the growth of established BxPC-3 xenografts, intraperitoneal vs intravenous administration", "setting": "[4]; mouse, in vivo", "result": "equivalent inhibition"}, {"measurement": "inhibition of the growth of established BxPC-3 xenografts, murine vs humanized", "setting": "[4]; mouse, in vivo", "result": "equivalent inhibition"}, {"measurement": "inhibition of growth and survival of MCF-7 cells over a range of serum concentrations", "setting": "MCF-7 (breast) cells; 0.04-10% serum, FIG. 8", "result": "equally effective"}, {"measurement": "IGF-1- or serum-stimulated growth and survival of MCF-7 cells", "setting": "MCF-7 (breast) cells; FIGS. 7 and 8", "result": "strongly inhibited"}, {"measurement": "% Inhibition by EM164 antibody of Growth/survival of cells in 1.25-10% serum", "setting": "MCF-7 (breast) cells; MCF-7 (breast), 5-10 μg/mL EM164", "result": 85, "unit": "%"}, {"measurement": "Inhibition by EM164 antibody of IGF-I-stimulated growth in serum-free medium", "setting": "MCF-7 (breast) cells; MCF-7 (breast), 5-10 μg/mL EM164, 10 ng/mL IGF-I", "result": 100, "unit": "%"}, {"measurement": "inhibition of serum-stimulated growth", "setting": "MCF-7 (breast) cells; MCF-7 cells, in the presence of serum", "result": "greater than 80%"}, {"measurement": "IGF-II-stimulated growth and survival of MCF-7 cells", "setting": "MCF-7 (breast) cells; separate experiment", "result": "strongly inhibited"}, {"measurement": "Kd", "setting": "[5]; ELISA titration, non-linear regression for one-site binding, read-out: dissociation constant (Kd)", "result": 0.1, "unit": "nM"}, {"measurement": "koff rate", "setting": "[5]; strong binding signals after prolonged 1-2 day washes", "result": "very slow"}, {"measurement": "growth of established A-673 xenografts", "setting": "[6]", "result": "significant growth delay"}, {"measurement": "fluorescence shift (FACS)", "setting": "[7]", "result": "strong fluorescence shift"}, {"measurement": "colony size of HT29 colon cancer cells", "setting": "HT-29 colon cancer cells", "result": "greatly reduced"}, {"measurement": "Inhibition by EM164 antibody of IGF-I-stimulated growth in serum-free medium", "setting": "HT-29 colon cancer cells; HT-29, 5-10 μg/mL EM164, 10 ng/mL IGF-I", "result": 60, "unit": "%"}, {"measurement": "% Inhibition by EM164 antibody of Growth/survival of cells in 1.25-10% serum", "setting": "HT-29 colon cancer cells; HT-29, 5-10 μg/mL EM164, MTT or colony formation assay", "result": "Yes"}]}
